Source: patent US7101843B2, “Glucagon-like peptide-1 analogs” (Eli Lilly and Company, priority 2001, dated 2006)
Values joined by “and” are separate entries in the source; they are usually repeats but may differ in a detail not shown here. Equal values may be shown once.

How the values were obtained:
[1] = GLP aggregation assay (turbidity at 350 nm, time to onset of aggregation); type: physicochemical; conditions: for aggregation time: at 30° C., stirred solution, pH 7.4
Experimental: GLP peptides of this invention were analyzed with respect to their potential to aggregate in solution. In general, peptides in solution were stirred at elevated temperature in a suitable buffer while recording turbidity at 350 nm as a function of time. Time to the onset of aggregation was measured to quantify the potential of a given GLP molecule to aggregate under these stressed conditions.
A GLP-1 compound was first dissolved under alkaline conditions (pH 10.5) for 30 minutes to dissolve any pre-aggregated material. The solution was then adjusted to pH 7.4 and filtered. Specifically, 4 mg of a lyophilized GLP-1 compound was dissolved in 3 ml of 10 mM phosphate/10 mM citrate. The pH was adjusted to 10.0–10.5 and held for 30 minutes. The solution was adjusted with HCl to pH 7.4 and filtered through a suitable filter, for example a Millex GV syringe filter (Millipore Corporation, Bedford, Mass.). […] Every five minutes the turbidity of the solution was measured at 350 nm on an AVIV Model 14DS UV-VIS spectrophotometer (Lakewood, N.J.). For 30 seconds prior to and during the measurement the solution was stirred using a magnetic stir bar from Starna Cells, Inc. (Atascadero, Calif.). An increase in OD at 350 nm indicates aggregation of the GLP-peptide. The time to aggregation was approximated by the intersection of linear fits to the pre-growth and growth phase according to method of Drake (Arvinte T, Cudd A, and Drake A F. (1993) J. Bio. Chem. 268, 6415–6422).

[2] = tested on: plasma insulin and plasma glucose; assay: Intravenous glucose tolerance test (IVGTT) in rats; type: in vivo, wistar male rats; conditions: plasma insulin after injection (figures)
Experimental: FIG. 1 graphs plasma insulin and plasma glucose concentrations obtained at various time points after injection of increasing concentrations of Val^8-GLP-1(7–37)OH in rats.
FIG. 2 graphs plasma insulin concentrations obtained at various time points after injection of increasing concentrations of Val^8-Glu^22-Val^25-Ile^33-GLP-1 (7–37)OH in rats.
A double cannulation procedure was performed on fasting wistar male rats to facilitate injection of solutions and withdrawal of blood. Rats were injected through the jugular cannula with a bolus of 10% glucose solution followed by a solution containing a specific amount of a GLP-1 compound. Rats were injected with 0.01, 0.03, 0.1, 0.3, 1, and 10 μg/kg of GLP-1 compound. Blood was collected through the carotid cannula 2, 4, 6, 10, and 30 minutes following the injection of GLP-1 compound and analyzed. Plasma insulin and plasma glucose levels were measured in each sample. Average insulin and glucose levels are illustrated in FIGS. 1, 2, and 3.

GLP-1 receptor = GLP-1 receptor (Homo sapiens, UniProt P43220); assay: GLP-1 receptor activation in vitro; type: cell-based; conditions: Val^8-GLP-1(7-37)OH = 1.0, several values in a cell are repeat determinations
Description: “Insulinotropic activity” refers to the ability to stimulate insulin secretion in response to elevated glucose levels, thereby causing glucose uptake by cells and decreased plasma glucose levels. […] The entire teachings of these references are incorporated herein by reference.
The entire teachings of these references are incorporated herein by reference.

GLP-1 receptor, sequence (P43220 24-463, species assumed): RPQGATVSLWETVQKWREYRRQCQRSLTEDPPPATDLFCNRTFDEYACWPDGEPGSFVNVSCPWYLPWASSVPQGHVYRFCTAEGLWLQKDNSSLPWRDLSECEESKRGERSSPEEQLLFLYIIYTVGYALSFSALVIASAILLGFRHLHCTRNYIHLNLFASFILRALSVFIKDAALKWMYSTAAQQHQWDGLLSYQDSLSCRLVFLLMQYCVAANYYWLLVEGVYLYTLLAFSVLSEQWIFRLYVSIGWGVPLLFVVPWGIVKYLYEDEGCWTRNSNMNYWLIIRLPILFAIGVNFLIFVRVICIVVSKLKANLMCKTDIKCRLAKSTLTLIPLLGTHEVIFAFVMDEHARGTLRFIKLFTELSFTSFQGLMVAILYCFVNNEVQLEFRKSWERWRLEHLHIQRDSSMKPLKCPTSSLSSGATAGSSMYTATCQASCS

Row | GLP-1 receptor activation relative to Val^8-GLP-1(7-37)OH (GLP-1 receptor) | Substance | aggregation time [1] | propensity to aggregate in solution compared to Val^8-GLP-1(7–37)OH [1] | in vivo potency compared to Val^8-GLP-1(7–37)OH [2]
1 | – | Val^8-Glu^30-GLP-1(7-37)OH (HVEGTFTSDVSSYLEGQAAKEFIEWLVKGRG) [GLP-1 analog] | approximately 30 hours | markedly decreased propensity to aggregate | –
2 | 4.9 and 5.8 and 6.7 | Val^8-Glu^22-Val^25-Ile^33-GLP-1(7-37)OH (HVEGTFTSDVSSYLEEQAVKEFIAWLIKGRG) [GLP-1 analog] | – | – | higher in vivo potency
3 | 5.1 and 5.9 | Val^8-Tyr^18-Glu^22-GLP-1(7-37)OH (HVEGTFTSDVSYYLEEQAAKEFIAWLVKGRG) [GLP-1 analog] | – | – | –
4 | – | Val^8-Glu^22-GLP-1(7–37)OH | approximately 72 hours | markedly decreased propensity to aggregate | –
5 | 3.6 and 3.8 and 4.9 and 4.6 | Val^8-Tyr^16-Glu^22-GLP-1(7-37)OH (HVEGTFTSDYSSYLEEQAAKEFIAWLVKGRG) [GLP-1 analog] | – | – | –
6 | – | Val^8-His^37-GLP-1(7-37)OH (HVEGTFTSDVSSYLEGQAAKEFIAWLVKGRH) [GLP-1 analog] | greater than 40 hours | markedly decreased propensity to aggregate | –
7 | 4.7 and 3.8 and 3.4 | Val^8-Glu^22-Ile^33-GLP-1(7-37)OH (HVEGTFTSDVSSYLEEQAAKEFIAWLIKGRG) [GLP-1 analog] | – | – | –
8 | 4.7 and 2.9 | Val^8-Glu^22-Val^25-GLP-1(7-37)OH (HVEGTFTSDVSSYLEEQAVKEFIAWLVKGRG) [GLP-1 analog] | – | – | –
